Results taken from CN114605532A (BEIJING FIRST BIOCHEMICAL PHARMACEUTICAL LTD COMPANY, dated 2022).

Target: 抗原(bs-0107P)
Assay: indirect ELISA, antigen bs-0107P coated at 2 μg/ml (0.2 μg/well), purified antibody in serial dilution, HRP goat anti-mouse IgG, OD450

Chain of 抗原(bs-0107P) (P05067 672-713): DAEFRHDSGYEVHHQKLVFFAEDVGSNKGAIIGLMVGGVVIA

EC50: 23.7 pM
B1: 抗β-淀粉样蛋白单克隆抗体7D10-1E6 (antibody, V domains shown)
VH: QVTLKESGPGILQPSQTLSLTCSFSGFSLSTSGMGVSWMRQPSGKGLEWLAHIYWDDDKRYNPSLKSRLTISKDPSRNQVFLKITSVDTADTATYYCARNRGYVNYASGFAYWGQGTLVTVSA
VL: DVLMTQTPLSLPVSLGDQASISCRSSQSIVHSNGNTYLEWYLQKPGQSPKLLIYKVSNRFSGVPDRFSGSGSGTDFILKINRVEAEDLGVYYCFQGSHVPLTFGAGTKLELK
